According to patent publication US20250333441A1, “POLYPEPTIDE INHIBITORS AND USES THEREOF” (Neuracle Science Co., Ltd., priority 2021, published 2025):

Columns and labels:
[1] = molecular target: FAM19A5 protein (Homo sapiens, UniProt Q7Z5A7); test: Co-immunoprecipitation of FLAG-tagged LRRC4 family constructs with recombinant FAM19A5 in HEK293 cells; assay type: binding; conditions: HEK293 cells expressing FLAG-tagged construct, recombinant FAM19A5 protein (1 μM) 30 minutes; anti-FLAG immunoprecipitation
Chain of FAM19A5 protein (Q7Z5A7 44-132): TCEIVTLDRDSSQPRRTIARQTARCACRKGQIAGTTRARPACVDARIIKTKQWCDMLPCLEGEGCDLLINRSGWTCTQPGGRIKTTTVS
Experimental: To better understand the interaction between FAM19A5 and members of the LRRC4 protein family, HEK293 cells were modified to express a FLAG-tagged member of the LRRC4 protein family, i.e., LRRC4C protein, LRRC4 protein, or LRRC4B protein. Then, the HEK293 cells or primary cortical neurons were treated with recombinant FAM19A5 protein (1 μM) for 30 minutes, and the binding between FAM19A5 protein and the different members of the LRRC4 protein family was assessed using both co-immunoprecipitation and immunofluorescence assays.
For the co-immunoprecipitation assay, cell lysates from the different FAM19A5-treated HEK293 cells were collected and immunoprecipitated with an anti-FLAG antibody, anti-FAM19A5 (1-65) antibody, or a human IgG antibody (control). Immunoprecipitated proteins were immunoblotted with anti-FLAG and anti-FAM19A5 (3-2) antibodies. For the immunofluorescence assay, the HEK293 cells treated with the recombinant FAM19A5 protein were immunostained with anti-FAM19A5 (3-2) (to detect FAM19A5 protein expression) and anti-FLAG antibodies (to detect member of the LRRC4 protein family). The primary cortical neurons treated with the recombinant FAM19A5 protein were immunostained with anti-FAM19A5 (3-2) and anti-LRRC4B antibodies. The nuclei were stained with Hoechst33342 (blue).
To determine the specific motif or domain of the LRRC4B protein that is responsible for the binding to a FAM19A5 protein, various FLAG-tagged LRRC4B deletion constructs were generated (see Table 6 below). HEK293 cells were transfected with the different deletion constructs and then treated with recombinant FAM19A5 protein as described in Example 1. Then, the cell lysates from the different HEK293 cells were immunoprecipitated with the anti-FLAG antibody. The immunoprecipitated proteins were immunoblotted with anti-FLAG and anti-FAM19A5 (3-2) antibodies.
As described in Example 2, all members of the LRRC4 protein family were capable of binding to FAM19A5 protein to varying degrees. Therefore, to compare the bindings domains, the amino acid sequences of the LRRC4B, LRRC4, and LRRC4C proteins were aligned. […] Therefore, to assess whether the corresponding positions of LRRC4 and LRRC4C were important in the binding of these proteins to FAM19A5 protein, cDNAs encoding either (i) LRRC4C protein fragment (amino acids 354-527 of SEQ ID NO: 3; SEQ ID NO: 66) or (ii) LRRC4 protein fragment (amino acids 353-527 of SEQ ID NO: 1; SEQ ID NO: 67) were constructed (see Table 7). HEK293 cells were transfected to express either of the protein fragments and then treated with recombinant FAM19A5 protein as described in Example 1. Then, the cell lysates from the different HEK293 cells were immunoprecipitated with the anti-FLAG antibody. The immunoprecipitated proteins were immunoblotted with anti-FLAG and anti-FAM19A5 (3-2) antibodies.

[2] = test system: mouse primary hippocampal neurons; test: Synapse formation (SYP, PSD95) in primary hippocampal neurons; assay type: cell-based; conditions: 6 or 60 nM
Experimental: Next, it is generally known that neurites that outgrow from other neurites are capable of differentiating into axons, forming presynapses. Other neurites remain minor neurites and differentiate into dendrites, forming postsynapses. Therefore, whether the LRRC4B (453-576) protein fragment can also affect pre- and post-synaptic formation was also assessed. Briefly, mouse primary hippocampal neurons were cultured in vitro with the LRRC4B (453-576) protein fragment (6 or 60 nM). Control cells were treated with either DMSO (“Veh”) or the mutant LRRC4B (453-576) protein fragment which is not capable of binding to FAM19A5 protein (comprises alanine substitutions at positions 488 and 489). Then, at days 3 and 6 post initial culture, the expression level of synaptophysin (SYP; a presynaptic marker) was assessed. At day 7 post initial culture, the expression level of postsynaptic density 95 (PSD95; a postsynaptic marker) was assessed.
Primary hippocampal neurons were prepared from postnatal pups (postnatal day 1) of C57BL/6 (Nara Biotech, Seoul, Korea) as previously described by Beaudoin et al., Nature protocols 7(9): 1741-1754 (2012), which is incorporated herein by reference in its entirety. Briefly, cortices were dissected in Hank's buffered salt solution (HBSS) (Invitrogen, Carlsbad, CA, USA) and digested with 2.5% trypsin for 15 min at 37° C. […]

- binding to FAM19A5 protein (co-immunoprecipitation) [1]: able to bind to the FAM19A5 protein
B1: LRRC4B (453-576): LRRC4B fragment, amino acids 453-576 of SEQ ID NO: 2 (SEQ ID NO: 7); used hFc-fused (protein)
chain: VSAVDPVAAGGTGSGGGGPGGSGGVGGGSGGYTYFTTVTVETLETQPGEEALQPRGTEKEPPGPTTDGVWGGGRPGDAAGPASSSTTAPAPRSSRPTEKAFTVPITDVTENALKDLDDVMKTTK
modifications: human Fc fusion in use
notes: used hFc-fused
- number of puncta colabeled with SYP and PSD95 [2]: increased number of puncta
